Measured values: patent US20240301046A1

What was measured:
[1] = biological target: Aβ1-40 monomer (rPeptide, A-1157-2) (UniProt P05067); experiment: direct ELISA, coated Aβ1-40 monomer, 50 pmol per well
[2] = biological target: biotin-labelled Aβ1-40 monomer (AnaSpec, AS-61483-01) (UniProt P05067); experiment: capture ELISA, antibody coated at 100 ng per well, biotin-Aβ40 monomer
[3] = biological target: Aβ1-42 fibril (rPeptide, AF-1002) (UniProt P05067); experiment: direct ELISA, coated Aβ1-42 fibril, 50 pmol per well
Aβ1-42 protofibril = Aβ1-42 protofibril (UniProt P05067); experiment: direct ELISA, coated Aβ1-42 protofibril, 50 pmol per well

- EC50 [1]: 50000 nM
- EC50 [2]: 0.067 nM
- EC50 [3]: 0.08 nM
- EC50 (Aβ1-42 protofibril): 0.05 nM
Substance: non-conformation selective anti-Aβ antibody 6E10 (BioLegend, 803001)
